Read-outs that look alike come from different tables or passages of the source.
Assays:
[1] = target: SARS-CoV-2 spike protein WT (SARS-CoV-2 (WT)) (UniProt P0DTC2); assay: competition ELISA
[2] = target: SARS-CoV-2 spike protein WT (SARS-CoV-2 (WT)) (UniProt P0DTC2)
[3] = target: SARS-CoV-2 spike protein WT (SARS-CoV-2 (WT)) (UniProt P0DTC2); remark: listed apart in the source
[4] = target: SARS-CoV-2 spike protein WT (SARS-CoV-2 (WT)) (UniProt P0DTC2); remark: listed apart in the source

Sequence | binding signal (% spike still bound to hACE2) [1] | Kd [2] [nM] | Kd [3] [nM] | Kd [4] [nM]
CGCAGCACCCAAGAACAAGGACTGCTTAGGATTGCGATAGGTTCGGAAAAAAAAAAAAAAAAGGCGGGTTCCTAGACTTGTACTCAGCCT [S1B6C3-A15-S2A2C1] | 12 |  |  | 
CGCAGCACCCAAGAACAAGGACTGCTTAGGATTGCGATAGGTTCGGTTTTTTTTTTTTTTTAGGCGGGTTCCTAGACTTGTACTCAGCCT [S1B6C3-T15-S2A2C1] | 24 | 46.1 |  | 
CGCAGCACCCAAGAACAAGGACTGCTTAGGATTGCGATAGGTTCGGAAAAAAGGCGGGTTCCTAGACTTGTACTCAGCCT [S1B6C3-A5-S2A2C1] | 8 |  | 35.8 | 34.6
AGGCGGGTTCCTAGACTTGTACTCAGCCTTTTTTTTTTTTTTTTCGCAGCACCCAAGAACAAGGACTGCTTAGGATTGCGATAGGTTCGG [S2A2C1-T15-S1B6C3] |  | 61.4 |  | 
